This is an account of results in patent US20160136295A1, “BIOMARKERS FOR TREATMENT WITH ANTI-TUBULIN CHEMOTHERAPEUTIC COMPOUNDS” (GENENTECH, INC., priority 2012, published 2016).

What all share (format): biochemical, human
In one assay the test system is Mcl-1 S159/T163. In words: In vitro kinase reactions: percent phosphorylation of full-length recombinant Mcl-1 at S159+T163. The note with it: for Percent phosphorylation S159/T163, AVE: average; for Percent phosphorylation S159/T163, INJ1: sample injection 1; for Percent phosphorylation S159/T163, INJ2: sample injection 2. As to the method: (§1) To determine the suitability of residues in Mcl-1 as kinase substrates, 10 μM of Mcl-1 was incubated with selected kinase at enzyme concentrations between 25 and 100 nM. For these reactions the Mcl-1 was dialyzed into 20 mM Phosphate, 50 mM Tris pH 7.5 150 mM NaCl, 5 mM DTT and 0.5% CHAPS. The protein solution was further supplemented with MgCl2 to 10 mM and ATP to 1 mM prior to addition of kinase. Purified recombinant kinases were purchased from Invitrogen Co. (Carlsbad, Calif.).
(§2) 10 μl of each of the Mcl-1 kinase reactions (100 pmol) were loaded onto a 4-12% Bis-Tris gel for separation by SDS-PAGE after reduction. Mcl-1 bands were excised from the gel, dehydrated (50% acetonitrile in 50 mM ammonium bicarbonate then 100% acetonitrile washes), and incubated with 0.2 μg trypsin overnight at 37° C.
(§3) Samples were injected in duplicate via autosampler onto a nanoAcquity® UPLC (Waters, Milford, Mass.) and analyzed on-line via nanospray ionization into an LTQ-Orbitrap® mass spectrometer at a concentration of 300 fmol synthetic peptide mix per injection. Areas were integrated for the isotopic and kinase phosphorylated peptides, and compared to their non-phosphorylated peptide counterparts to obtain percent phosphorylation values.

The next assay has as its system Mcl-1 S121. The experiment in a line: In vitro kinase reactions: percent phosphorylation of full-length recombinant Mcl-1 at S121. The note with it: for Percent phosphorylation S121, AVE: average of INJ1 and INJ2; for Percent phosphorylation S121, INJ1: sample injection 1; for Percent phosphorylation S121, INJ2: sample injection 2. The protocol:
as §1, §2, §3

The subject of another assay is Mcl-1 T92. In words: In vitro kinase reactions: percent phosphorylation of full-length recombinant Mcl-1 at T92. The note with it: single kinase reactions, peak areas of 0 and 1P, triple charged state; for Percent phosphorylation T92, AVE: average; for Percent phosphorylation T92, INJ1: sample injection 1; for Percent phosphorylation T92, INJ2: sample injection 2. As to the method: as §1, §2, §3

The test system of another assay is Mcl-1 T163. The experiment in a line: In vitro kinase reactions: percent phosphorylation of full-length recombinant Mcl-1 at T163. The note with it: single kinase reactions; for Percent phosphorylation T163, AVE: average of INJ1 and INJ2; for Percent phosphorylation T163, INJ1: sample injection 1; for Percent phosphorylation T163, INJ2: sample injection 2. As to the method:
as §1, §2, §3

The mark [1] stands for this setting: % phos on S159+T163, CDK1 + kinase panel reactions.
Setting [2] is: % phos on S159+T163, single kinase reactions.

B1: MAPK12: purified recombinant kinase purchased from Invitrogen (protein, UniProt P53778 1-367, looked up)
Mitogen-activated protein …: MSSPPPARSGFYRQEVTKTAWEVRAVYRDLQPVGSGAYGAVCSAVDGRTGAKVAIKKLYRPFQSELFAKRAYRELRLLKHMRHENVIGLLDVFTPDETLDDFTDFYLVMPFMGTDLGKLMKHEKLGEDRIQFLVYQMLKGLRYIHAAGIIHRDLKPGNLAVNEDCELKILDFGLARQADSEMTGYVVTRWYRAPEVILNWMRYTQTVDIWSVGCIMAEMITGKTLFKGSDHLDQLKEIMKVTGTPPAEFVQRLQSDEAKNYMKGLPELEKKDFASILTNASPLAVNLLEKMLVLDAEQRVTAGEALAHPYFESLHDTEDEPQVQKYDDSFDDVDRTLDEWKRVTYKEVLSFKPPRQLGARVSKETPL
Consider B1, for which, in the assay on Mcl-1 S159/T163 (setting [1]), the “Percent phosphorylation S159/T163, AVE” value is listed as 0.00%; the “Percent phosphorylation S159/T163, INJ1” value is recorded as 0.00%; the “Percent phosphorylation S159/T163, INJ2” value came out at 0.00%. In the assay on Mcl-1 S159/T163 (setting [2]), the “Percent phosphorylation S159/T163, AVE” value is on record as 0.00%; the “Percent phosphorylation S159/T163, INJ1” value is listed as 0.00%; the “Percent phosphorylation S159/T163, INJ2” value was found to be 0.00%. Also, in the assay on Mcl-1 S121 (CDK1 + kinase panel reactions), the “Percent phosphorylation S121, AVE” value was 18.12%; the “Percent phosphorylation S121, INJ1” value was found to be 18.73%; the “Percent phosphorylation S121, INJ2” value is reported as 17.51%. Moreover, in the assay on Mcl-1 S121 (single kinase reactions), the “Percent phosphorylation S121, AVE” value turned out to be 11.00%; the “Percent phosphorylation S121, INJ1” value stood at 10.71%; the “Percent phosphorylation S121, INJ2” value is recorded as 11.28%. In addition, in the assay with Mcl-1 T92, the “Percent phosphorylation T92, AVE” value stood at 69.58%; the “Percent phosphorylation T92, INJ1” value is reported as 71.57%; the “Percent phosphorylation T92, INJ2” value is 67.59%. Besides, in the assay with Mcl-1 T163, the “Percent phosphorylation T163, AVE” value worked out at 53.34%; the “Percent phosphorylation T163, INJ1” value is listed as 55.05%; the “Percent phosphorylation T163, INJ2” value came out at 51.63%.

B2: MAPK11: purified recombinant kinase purchased from Invitrogen (protein, UniProt Q15759 1-364, looked up)
Mitogen-activated protein …: MSGPRAGFYRQELNKTVWEVPQRLQGLRPVGSGAYGSVCSAYDARLRQKVAVKKLSRPFQSLIHARRTYRELRLLKHLKHENVIGLLDVFTPATSIEDFSEVYLVTTLMGADLNNIVKCQALSDEHVQFLVYQLLRGLKYIHSAGIIHRDLKPSNVAVNEDCELRILDFGLARQADEEMTGYVATRWYRAPEIMLNWMHYNQTVDIWSVGCIMAELLQGKALFPGSDYIDQLKRIMEVVGTPSPEVLAKISSEHARTYIQSLPPMPQKDLSSIFRGANPLAIDLLGRMLVLDSDQRVSAAEALAHAYFSQYHDPEDEPEAEPYDESVEAKERTLEEWKELTYQEVLSFKPPEPPKPPGSLEIEQ
With B2, in the assay with Mcl-1 S159/T163 (setting [1]), the “Percent phosphorylation S159/T163, AVE” value was 0.94%; the “Percent phosphorylation S159/T163, INJ1” value was determined as 1.15%; the “Percent phosphorylation S159/T163, INJ2” value is on record as 0.73%. In addition, in the assay with Mcl-1 S159/T163 (setting [2]), the “Percent phosphorylation S159/T163, AVE” value turned out to be 2.56%; the “Percent phosphorylation S159/T163, INJ1” value stood at 3.06%; the “Percent phosphorylation S159/T163, INJ2” value is given as 2.06%. Besides, in the assay with Mcl-1 S121 (CDK1 + kinase panel reactions), the “Percent phosphorylation S121, AVE” value is 10.11%; the “Percent phosphorylation S121, INJ1” value stood at 10.45%; the “Percent phosphorylation S121, INJ2” value turned out to be 9.76%. In the assay with Mcl-1 S121 (single kinase reactions), the “Percent phosphorylation S121, AVE” value stood at 5.66%; the “Percent phosphorylation S121, INJ1” value worked out at 5.84%; the “Percent phosphorylation S121, INJ2” value was determined as 5.48%. In the assay on Mcl-1 T92, the “Percent phosphorylation T92, AVE” value is 3.27%; the “Percent phosphorylation T92, INJ1” value is 2.59%; the “Percent phosphorylation T92, INJ2” value was determined as 3.95%. Moreover, in the assay with Mcl-1 T163, the “Percent phosphorylation T163, AVE” value was 51.87%; the “Percent phosphorylation T163, INJ1” value stood at 53.70%; the “Percent phosphorylation T163, INJ2” value is recorded as 50.04%.

B3: MAPK10: purified recombinant kinase purchased from Invitrogen (protein, UniProt P53779 1-464, looked up)
Mitogen-activated protein …: MSLHFLYYCSEPTLDVKIAFCQGFDKQVDVSYIAKHYNMSKSKVDNQFYSVEVGDSTFTVLKRYQNLKPIGSGAQGIVCAAYDAVLDRNVAIKKLSRPFQNQTHAKRAYRELVLMKCVNHKNIISLLNVFTPQKTLEEFQDVYLVMELMDANLCQVIQMELDHERMSYLLYQMLCGIKHLHSAGIIHRDLKPSNIVVKSDCTLKILDFGLARTAGTSFMMTPYVVTRYYRAPEVILGMGYKENVDIWSVGCIMGEMVRHKILFPGRDYIDQWNKVIEQLGTPCPEFMKKLQPTVRNYVENRPKYAGLTFPKLFPDSLFPADSEHNKLKASQARDLLSKMLVIDPAKRISVDDALQHPYINVWYDPAEVEAPPPQIYDKQLDEREHTIEEWKELIYKEVMNSEEKTKNGVVKGQPSPSGAAVNSSESLPPSSSVNDISSMSTDQTLASDTDSSLEASAGPLGCCR
As for B3, in the assay on Mcl-1 S159/T163 (setting [1]), the “Percent phosphorylation S159/T163, AVE” value was 4.10%; the “Percent phosphorylation S159/T163, INJ1” value is on record as 3.86%; the “Percent phosphorylation S159/T163, INJ2” value came to 4.33%. Also, in the assay with Mcl-1 S159/T163 (setting [2]), the “Percent phosphorylation S159/T163, AVE” value was found to be 16.83%; the “Percent phosphorylation S159/T163, INJ1” value came to 16.73%; the “Percent phosphorylation S159/T163, INJ2” value stood at 16.92%. In the assay with Mcl-1 S121 (CDK1 + kinase panel reactions), the “Percent phosphorylation S121, AVE” value was determined as 32.85%; the “Percent phosphorylation S121, INJ1” value is given as 32.82%; the “Percent phosphorylation S121, INJ2” value is recorded as 32.88%. Besides, in the assay on Mcl-1 S121 (single kinase reactions), the “Percent phosphorylation S121, AVE” value is 13.14%; the “Percent phosphorylation S121, INJ1” value was 11.61%; the “Percent phosphorylation S121, INJ2” value is reported as 14.67%. In the assay with Mcl-1 T92, the “Percent phosphorylation T92, AVE” value amounted to 9.35%; the “Percent phosphorylation T92, INJ1” value is 10.29%; the “Percent phosphorylation T92, INJ2” value was found to be 8.41%. Further, in the assay on Mcl-1 T163, the “Percent phosphorylation T163, AVE” value turned out to be 43.90%; the “Percent phosphorylation T163, INJ1” value came to 45.09%; the “Percent phosphorylation T163, INJ2” value was determined as 42.70%.

B4: MAPK13: purified recombinant kinase purchased from Invitrogen (protein, UniProt O15264 1-365, looked up)
Mitogen-activated protein …: MSLIRKKGFYKQDVNKTAWELPKTYVSPTHVGSGAYGSVCSAIDKRSGEKVAIKKLSRPFQSEIFAKRAYRELLLLKHMQHENVIGLLDVFTPASSLRNFYDFYLVMPFMQTDLQKIMGMEFSEEKIQYLVYQMLKGLKYIHSAGVVHRDLKPGNLAVNEDCELKILDFGLARHADAEMTGYVVTRWYRAPEVILSWMHYNQTVDIWSVGCIMAEMLTGKTLFKGKDYLDQLTQILKVTGVPGTEFVQKLNDKAAKSYIQSLPQTPRKDFTQLFPRASPQAADLLEKMLELDVDKRLTAAQALTHPFFEPFRDPEEETEAQQPFDDSLEHEKLTVDEWKQHIYKEIVNFSPIARKDSRRRSGMKL
With B4, in the assay on Mcl-1 S159/T163 (setting [1]), the “Percent phosphorylation S159/T163, AVE” value came out at 0.56%; the “Percent phosphorylation S159/T163, INJ1” value worked out at 0.74%; the “Percent phosphorylation S159/T163, INJ2” value is 0.38%. In addition, in the assay on Mcl-1 S159/T163 (setting [2]), the “Percent phosphorylation S159/T163, AVE” value was found to be 4.70%; the “Percent phosphorylation S159/T163, INJ1” value was 5.77%; the “Percent phosphorylation S159/T163, INJ2” value came out at 3.62%. In addition, in the assay with Mcl-1 S121 (CDK1 + kinase panel reactions), the “Percent phosphorylation S121, AVE” value was 20.30%; the “Percent phosphorylation S121, INJ1” value came out at 20.33%; the “Percent phosphorylation S121, INJ2” value is listed as 20.26%. In the assay on Mcl-1 S121 (single kinase reactions), the “Percent phosphorylation S121, AVE” value came to 8.21%; the “Percent phosphorylation S121, INJ1” value was 10.06%; the “Percent phosphorylation S121, INJ2” value is on record as 6.35%. Further, in the assay on Mcl-1 T92, the “Percent phosphorylation T92, AVE” value was found to be 22.75%; the “Percent phosphorylation T92, INJ1” value was 22.96%; the “Percent phosphorylation T92, INJ2” value was 22.54%. In addition, in the assay with Mcl-1 T163, the “Percent phosphorylation T163, AVE” value was determined as 64.78%; the “Percent phosphorylation T163, INJ1” value worked out at 65.53%; the “Percent phosphorylation T163, INJ2” value is listed as 64.03%.
